Measured values from article PMC6805484 (2019).

B1: GFP-MKRN1^wt (Makorin Ring Finger Protein 1, wild type, N-terminally GFP-tagged) [human] / cytoplasmic poly(A)-binding protein PABPC4 (endogenous) [human (endogenous in HEK293T)] (parent complex)
chain 1: MAEAATPGTTATTSGAGAAAATAAAASPTPIPTVTAPSLGAGGGGGGSDGSGGGWTKQVTCRYFMHGVCKEGDNCRYSHDLSDSPYSVVCKYFQRGYCIYGDRCRYEHSKPLKQEEATATELTTKSSLAASSSLSSIVGPLVEMNTGEAESRNSNFATVGAGSEDWVNAIEFVPGQPYCGRTAPSCTEAPLQGSVTKEESEKEQTAVETKKQLCPYAAVGECRYGENCVYLHGDSCDMCGLQVLHPMDAAQRSQHIKSCIEAHEKDMELSFAVQRSKDMVCGICMEVVYEKANPSERRFGILSNCNHTYCLKCIRKWRSAKQFESKIIKSCPECRITSNFVIPSEYWVEEKEEKQKLILKYKEAMSNKACRYFDEGRGSCPFGGNCFYKHAYPDGRREEPQRQKVGTSSRYRAQRRNHFWELIEERENSNPFDNDEEEVVTFELGEMLLMLLAAGGDDELTDSEDEWDLFHDELEDFYDLDL
chain 2: MNAAASSYPMASLYVGDLHSDVTEAMLYEKFSPAGPVLSIRVCRDMITRRSLGYAYVNFQQPADAERALDTMNFDVIKGKPIRIMWSQRDPSLRKSGVGNVFIKNLDKSIDNKALYDTFSAFGNILSCKVVCDENGSKGYAFVHFETQEAADKAIEKMNGMLLNDRKVFVGRFKSRKEREAELGAKAKEFTNVYIKNFGEEVDDESLKELFSQFGKTLSVKVMRDPNGKSKGFGFVSYEKHEDANKAVEEMNGKEISGKIIFVGRAQKKVERQAELKRKFEQLKQERISRYQGVNLYIKNLDDTIDDEKLRKEFSPFGSITSAKVMLEDGRSKGFGFVCFSSPEEATKAVTEMNGRIVGSKPLYVALAQRKEERKAHLTNQYMQRVAGMRALPANAILNQFQPAAGGYFVPAVPQAQGRPPYYTPNQLAQMRPNPRWQQGGRPQGFQGMPSAIRQSGPRPTLRHLAPTGSECPDRLAMDFGGAGAAQQGLTDSCQSGGVPTAVQNLAPRAAVAAAAPRAVAPYKYASSVRSPHPAIQPLQAPQPAVHVQGQEPLTASMLAAAPPQEQKQMLGERLFPLIQTMHSNLAGKITGMLLEIDNSELLHMLESPESLRSKVDEAVAVLQAHHAKKEAAQKVGAVAAATS

Variants of: B1
Test: AP with quantitative MS-based proteomics (SILAC); HEK293T cells; combined ratios of three replicates; read off a plot
chain 1 A169S, chain 1 F172A, chain 1 P174A showed a screen value of about -9.1 z-score.
